B1: humanized MAb A3 (antibody)
VH: EVQLLESGAEVKKPGSSVRISCKVSGTPYSSYVMNWVRQAPGQGLEWMGVFVPSLDRALYAQNFQGRLSITADTTTTYMELTSLKFEDTAVYYCATDFSVGWLRPLDRWGQGTLVTVSSASTKGPSVFPLAPSSKSTSGGTAALGCLVKDYFPEPVTVSWNSGALTSGVHTFPAVLQSSGLYSLSSVVTVPSSSLGTQTYICNVDHKPSNTKVDKKVEPKSCDKTHTCPPCPAPPVEGGPSVFLFPPKPKDTLMISRTPEVTCVVVDVSHEDPEVKFNWYVDGVEVHNAKTKPREEQYNSTYRVVSVLTVLHQDWLNGKEYKCKVSNKALPAPIEKTISKAKGQPREPQVYTLPPSRDELTKNQVSLTCLVKGFYPSDIAVEWESNGQPENNYKTTPPVLDSDGSFFLYSKLTVDKSRWQQGNVFSCSVMHEALHNHYTQKSLSLSPGK
VL: not shown
B2: humanized MAb B2 (antibody)
VH: EVQLLEQSGSEVKKPGASVKVSCKASGYPFTDYAMSWVRQAPGQGLEYMGWIFTNSGNPTYAPGFAGRFVFSLDISVNTAYLHIDSLKPEDTAVYYCARGIVTPAASGDYFDSWGQGTLVTVSSASTKGPSVFPLAPSSKSTSGGTAALGCLVKDYFPEPVTVSWNSGALTSGVHTFPAVLQSSGLYSLSSVVTVPSSSLGTQTYICNVDHKPSNTKVDKKVEPKSCDKTHTCPPCPAPPVEGGPSVFLFPPKPKDTLMISRTPEVTCVVVDVSHEDPEVKFNWYVDGVEVHNAKTKPREEQYNSTYRVVSVLTVLHQDWLNGKEYKCKVSNKALPAPIEKTISKAKGQPREPQVYTLPPSRDELTKNQVSLTCLVKGFYPSDIAVEWESNGQPENNYKTTPPVLDSDGSFFLYSKLTVDKSRWQQGNVFSCSVMHEALHNHYTQKSLSLSPGK
VL: ELVLTQSPSSLSASIGDRVTITCRASQHISSWLAWYQQKPGKAPKPLIYAASSLKSGVPSRFSGSGSGTDFTLTISGLQPEDFATYYCQQYENSPVTFGGGTKVEIKRTVAAPSVFIFPPSDEQLKSGTASVVCLLNNFYPREAKVQWKVDNALQSGNSQESVTEQDSKDNTYSLSSTLTLSKADYEKHKVYACEVTHQGLSSPVTKSFN

Biological target: JEV strain SA14-14-2 envelope (E) protein on virions (Japanese encephalitis virus strain SA14-14-2), P0DOH7
Experiment: ELISA on JEV virions captured with HMAF, half-maximal binding, MAb
Conditions: remark: other sources report otherwise

Row | Binder | Kd [nM]
1 | B1 | 0.15
2 | B2 | 0.08
